# Source: US20070134215A1
# Molecular target: BMP-2
# Assay: cell-based or functional assay
substance,measurement,value
Recombinant Mouse Noggin/Fc Chimera protein (R&D Systems) (from UniProt P97466 28-232) (Fc fusion),"appearance of beating EBs (myocardial differentiation-inducing effect of Noggin protein at 150 ng/mL on ES cells, floating culture)",> 5 ng/mL
